T1: Influenza A MP54 (influenza M protein) peptide on HLA-DRA*01:01 / HLA-DRB1*04:01 (human)
T1 peptide: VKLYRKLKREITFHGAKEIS

T2: GAD65 peptide on HLA-DRA*01:01 / HLA-DRB1*04:01 (human)
T2 peptide: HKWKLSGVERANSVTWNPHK


Assays:
[1] = biological target: T1, Influenza A MP54 (influenza M protein) …; experiment: proliferation
[2] = biological target: T2, GAD65 peptide on HLA-DRA*01:01 / …; experiment: proliferation
[3] = biological target: T1, Influenza A MP54 (influenza M protein) …; experiment: activation reporter or marker

Row | Binder | binding result [1] | binding result [2] | binding result [3]
1 | Clone 566 (TCR) alpha TRAV29DV5 TRAJ45 CDR3: CAASRYSGGGADGLTF beta TRBV12-4 TRBJ1-1 CDR3: CASSVQGGNTEAFF | recognises | recognises | –
2 | P196-1 (TCR) alpha TRAV29DV5 TRAJ45 CDR3: CAASRYSGGGADGLTF beta TRBV12-4 TRBJ1-1 CDR3: CASSLQGGNTEAFF | – | recognises | recognises
3 | Clone 81 (TCR) alpha TRAV29DV5 TRAJ45 CDR3: CAASRYSGGGADGLTF beta TRBV12-4 TRBJ1-1 CDR3: CASSPQGGNTEAFF | recognises | recognises | –
